According to paper PMC11551761, “Probing the mechanism of nick searching by LIG1 at the single-molecule level”:

How the values were obtained:
[1] = molecular target: LIG1 C-terminal (human, UniProt P18858 261-919, del1-260); assay: BLI; no Mg2+ listed in buffer; 1 mM HEPES pH 7.4, 20 mM NaCl, 0.02% BSA, 0.002% Tween 20 (BLI, C-Trap, TIRF; TIRF plus oxygen scavenger and 10 mM Trolox); BLI sensors hydrated at 20 C, assay; details: protein: recombinant; tags: 6xHis (pET-24b); AF488 or Cy5 labelled for single-molecule assays; Methods says 3'); nicked duplex
[2] = molecular target: T1, LIG1 full-length (human, UniProt P18858 1-919); assay: as above; details: protein: recombinant; tags: 6xHis (pET-24b); AF488 or Cy5 labelled for single-molecule assays; Methods says 3'); nicked duplex
[3] = molecular target: T1, LIG1 full-length; assay: single-molecule TIRF; no Mg2+; bound lifetimes 0.9 s (70%), 8 s (30%); unbound 42 s; 1 mM HEPES pH 7.4, 20 mM NaCl, 0.02% BSA, 0.002% Tween 20 (BLI, C-Trap, TIRF; TIRF plus oxygen scavenger and 10 mM Trolox); BLI sensors hydrated at 20 C, assay; details: protein: recombinant; tags: 6xHis (pET-24b); AF488 or Cy5 labelled for single-molecule assays; label: 5'-biotin on Up; 3'-AF488 on Down; nicked duplex, blunt; nick between 18-nt Up and 16-nt Down on 34-nt template

T1 sequence (P18858 whole entry): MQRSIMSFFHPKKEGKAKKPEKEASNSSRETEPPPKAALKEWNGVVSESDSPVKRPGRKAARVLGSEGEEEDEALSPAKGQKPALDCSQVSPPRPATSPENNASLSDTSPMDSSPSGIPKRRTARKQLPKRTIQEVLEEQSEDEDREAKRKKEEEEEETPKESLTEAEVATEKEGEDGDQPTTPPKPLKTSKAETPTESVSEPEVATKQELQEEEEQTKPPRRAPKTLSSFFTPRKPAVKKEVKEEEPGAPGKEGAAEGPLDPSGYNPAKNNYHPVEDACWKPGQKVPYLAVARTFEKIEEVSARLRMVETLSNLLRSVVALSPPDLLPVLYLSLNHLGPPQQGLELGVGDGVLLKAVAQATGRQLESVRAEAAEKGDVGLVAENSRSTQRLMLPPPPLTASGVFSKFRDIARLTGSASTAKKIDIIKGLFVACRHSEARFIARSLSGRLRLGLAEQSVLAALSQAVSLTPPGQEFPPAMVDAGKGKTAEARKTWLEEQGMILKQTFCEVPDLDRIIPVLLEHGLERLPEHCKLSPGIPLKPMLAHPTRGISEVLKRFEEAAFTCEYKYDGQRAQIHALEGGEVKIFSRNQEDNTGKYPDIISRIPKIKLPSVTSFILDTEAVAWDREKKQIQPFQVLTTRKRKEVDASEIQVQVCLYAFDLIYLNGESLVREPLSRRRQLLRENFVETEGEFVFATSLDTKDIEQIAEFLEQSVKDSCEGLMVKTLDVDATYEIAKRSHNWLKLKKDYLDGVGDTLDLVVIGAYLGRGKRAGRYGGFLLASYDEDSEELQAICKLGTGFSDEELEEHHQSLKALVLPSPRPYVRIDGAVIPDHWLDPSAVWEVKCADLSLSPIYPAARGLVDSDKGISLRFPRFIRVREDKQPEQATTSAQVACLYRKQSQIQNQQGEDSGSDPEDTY
Sequence of LIG1 C-terminal (P18858 261-919, stated change not applied): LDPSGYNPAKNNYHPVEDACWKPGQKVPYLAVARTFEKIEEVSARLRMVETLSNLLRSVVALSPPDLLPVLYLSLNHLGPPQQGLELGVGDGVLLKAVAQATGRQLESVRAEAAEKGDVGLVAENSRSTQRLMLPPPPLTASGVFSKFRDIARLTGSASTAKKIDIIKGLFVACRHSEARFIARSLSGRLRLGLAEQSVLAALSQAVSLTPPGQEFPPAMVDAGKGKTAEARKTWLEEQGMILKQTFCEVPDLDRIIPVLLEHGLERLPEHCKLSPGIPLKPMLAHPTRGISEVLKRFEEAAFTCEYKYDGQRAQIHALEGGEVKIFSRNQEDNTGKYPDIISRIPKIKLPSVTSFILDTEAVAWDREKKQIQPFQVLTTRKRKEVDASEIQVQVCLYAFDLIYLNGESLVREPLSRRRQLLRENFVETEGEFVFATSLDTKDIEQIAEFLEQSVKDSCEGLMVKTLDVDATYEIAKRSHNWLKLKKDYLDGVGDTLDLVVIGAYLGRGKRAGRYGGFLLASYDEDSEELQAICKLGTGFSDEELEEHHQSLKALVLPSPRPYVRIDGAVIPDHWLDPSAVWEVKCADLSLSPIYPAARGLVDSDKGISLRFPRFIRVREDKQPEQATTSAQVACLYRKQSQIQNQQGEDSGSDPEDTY

| Binder | Kd [1] | Kd [2] | binding result [3] |
| --- | --- | --- | --- |
| nick DNA 3'-dG:C/5'-Bio (BLI) (dsDNA, single nick) DNA 1: CATGGGCGGCATGAACCGGAGGCCCATCCTCACC DNA 2: GGTGAGGATGGGCCTCCGGTTCATGCCGCCCATG | 196 nM | 95 nM |  |
| 34-mer single-nick DNA (Up-OH + Down / Template T) (dsDNA, 5'-phosphate on Down; 3'-OH at nick) DNA 1: CATGGGCGGCATGAACCA DNA 2: GAGGCCCATCCTCACC DNA 3: GGTGAGGATGGGCCTCTGGTTCATGCCGCCCATG |  |  | binds |
